Binding result and Kd data for 13 molecules are collected here from article PMC5727232, “Structural basis for genome wide recognition of 5-bp GC motifs by SMAD transcription factors”.

Data set [1] concerns the target T1, Smad4 MH1 domain (Homo sapiens, UniProt Q13485 10-140). Kind of data set: NMR; pH 6.3, 100 mM NaCl, 298 K; EMSA: 20 mM Tris pH 7.2, 80 mM NaCl, 2 mM DTT, 7.5 nM Cy5-DNA, 30 min room temperature, gel at 20 C; ITC: Tris pH 7.0, 20 C. The note with it: protein: recombinant; tags: N-terminal His, cleaved (TEV or 3C); blunt.
Data set [2] concerns the target T1, Smad4 MH1 domain. Kind of data set: X-ray crystallography (3.03 A); Zn2+; EMSA: 20 mM Tris pH 7.2, 80 mM NaCl, 2 mM DTT, 7.5 nM Cy5-DNA, 30 min room temperature, gel at 20 C; ITC: Tris pH 7.0, 20 C. To be noted: protein: recombinant; tags: N-terminal His, cleaved (TEV or 3C); blunt, self-complementary.
Data set [3] deals with T1, Smad4 MH1 domain. The data set is described as follows: EMSA; no nanomolar binding; EMSA: 20 mM Tris pH 7.2, 80 mM NaCl, 2 mM DTT, 7.5 nM Cy5-DNA, 30 min room temperature, gel at 20 C; ITC: Tris pH 7.0, 20 C. The note with it: protein: recombinant; tags: N-terminal His, cleaved (TEV or 3C); label: 5' Cy5; blunt. For orientation: A gel shift assay detects complexes by their altered migration in electrophoresis.

The target of data set [4] is T1, Smad4 MH1 domain. The data set is described as follows: ITC; EMSA: 20 mM Tris pH 7.2, 80 mM NaCl, 2 mM DTT, 7.5 nM Cy5-DNA, 30 min room temperature, gel at 20 C; ITC: Tris pH 7.0, 20 C. The note with it: protein: recombinant, tags: N-terminal His, cleaved (TEV or 3C), blunt.
Data set [5] has as its target T1, Smad4 MH1 domain. Kind of data set: EMSA; EMSA: 20 mM Tris pH 7.2, 80 mM NaCl, 2 mM DTT, 7.5 nM Cy5-DNA, 30 min room temperature, gel at 20 C; ITC: Tris pH 7.0, 20 C. The note with it: protein: recombinant; tags: N-terminal His, cleaved (TEV or 3C); label: 5' Cy5; blunt.
Data set [6] deals with T1, Smad4 MH1 domain. Kind of data set: NMR; 1 equivalent DNA; pH 6.3, 100 mM NaCl, 298 K; EMSA: 20 mM Tris pH 7.2, 80 mM NaCl, 2 mM DTT, 7.5 nM Cy5-DNA, 30 min room temperature, gel at 20 C; ITC: Tris pH 7.0, 20 C. The note with it: protein: recombinant; tags: N-terminal His, cleaved (TEV or 3C); blunt.
In data set [7] the target is T2, Trichoplax Smad4 MH1 domain (Trichoplax adhaerens, UniProt B3S7S5 1-151).
T2 sequence: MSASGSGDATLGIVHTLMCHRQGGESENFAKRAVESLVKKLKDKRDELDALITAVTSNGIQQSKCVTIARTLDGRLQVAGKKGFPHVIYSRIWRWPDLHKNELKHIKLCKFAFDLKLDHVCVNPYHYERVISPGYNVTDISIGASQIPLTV
The data set is described as follows: EMSA; EMSA: 20 mM Tris pH 7.2, 80 mM NaCl, 2 mM DTT, 7.5 nM Cy5-DNA, 30 min room temperature, gel at 20 C; ITC: Tris pH 7.0, 20 C. To be noted: protein: recombinant; tags: N-terminal His-TEV, cleaved; label: 5' Cy5; blunt.

Data set [8] deals with T3, Smad3 MH1 domain (Homo sapiens, UniProt P84022 1-141). The data set is described as follows: EMSA; text says GC1 oligonucleotide; EMSA: 20 mM Tris pH 7.2, 80 mM NaCl, 2 mM DTT, 7.5 nM Cy5-DNA, 30 min room temperature, gel at 20 C; ITC: Tris pH 7.0, 20 C. To be noted: protein: recombinant; tags: N-terminal His-TEV, cleaved; label: 5' Cy5; blunt.
In data set [9] the target is T3, Smad3 MH1 domain. Kind of data set: EMSA; EMSA: 20 mM Tris pH 7.2, 80 mM NaCl, 2 mM DTT, 7.5 nM Cy5-DNA, 30 min room temperature, gel at 20 C; ITC: Tris pH 7.0, 20 C. To be noted: protein: recombinant; tags: N-terminal His-TEV, cleaved; label: 5' Cy5; blunt.
Data set [10] deals with T1, Smad4 MH1 domain. The data set is described as follows: X-ray crystallography (2.05 A); Zn2+; EMSA: 20 mM Tris pH 7.2, 80 mM NaCl, 2 mM DTT, 7.5 nM Cy5-DNA, 30 min room temperature, gel at 20 C; ITC: Tris pH 7.0, 20 C. To be noted: protein: recombinant; tags: N-terminal His, cleaved (TEV or 3C); blunt, self-complementary.

T1 sequence (Q13485 10-140): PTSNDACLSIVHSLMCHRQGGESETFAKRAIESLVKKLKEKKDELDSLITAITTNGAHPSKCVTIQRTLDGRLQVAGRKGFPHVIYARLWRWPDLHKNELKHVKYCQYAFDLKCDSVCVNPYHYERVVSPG
T3 sequence (P84022 1-141): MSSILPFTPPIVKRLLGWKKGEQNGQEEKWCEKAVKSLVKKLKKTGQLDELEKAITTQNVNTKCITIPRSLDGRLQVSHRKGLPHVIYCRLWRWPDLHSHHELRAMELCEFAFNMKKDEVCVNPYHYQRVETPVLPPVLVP

B1: NMR GGCTGCC duplex (dsDNA)
DNA 1: AGCCGGCTGCC
DNA 2: GGCAGCCGGCT
Turning to B1, in the data set with Smad4 MH1 domain [1], the binding result is on record as “binds”.

B2: GGCCG-XRAY (dsDNA)
DNA 1: ACGGGCCGCGGCCCGT
DNA 2: ACGGGCCGCGGCCCGT
Take B2: the binding result in the data set with Smad4 MH1 domain [2] is listed as “binds”.

B3: FoxH1 site (dsDNA)
DNA 1: TCTCAATCCACAATC
DNA 2: GATTGTGGATTGAGA
Consider B3, for which, in the data set with Smad4 MH1 domain [3], the binding result is listed as “no binding”.

B4: SBE / GTCT (dsDNA)
DNA 1: TGCAGTCTAGACTGCA
DNA 2: TGCAGTCTAGACTGCA
In general, Kd refers to the equilibrium constant for the complex coming apart. For B4, in the data set with Smad4 MH1 domain [4] (label: 5' Cy5 in EMSA, self-complementary), the dissociation constant (Kd) stood at 200.3 ± 0.5 nM.

B5: -GGCCGC- (dsDNA)
DNA 1: ATTAGGCCGCAAAAAAAGCA
DNA 2: TGCTTTTTTTGCGGCCTAAT
B5: the binding result with Smad4 MH1 domain [5] was “binds”.

B6: CAGAC (ITC) (dsDNA)
DNA 1: AGTCAGACGCT
DNA 2: AGCGTCTGACT
With B6, the Kd with Smad4 MH1 domain [4] is 270.5 ± 0.1 nM.

B7: NMR GGCCGCGCC duplex (dsDNA)
DNA 1: AGGCCGCGCCGA
DNA 2: TCGGCGCGGCCT
Take B7: in the data set with Smad4 MH1 domain [6], the binding result is listed as “binds”.

B8: GC1 core (dsDNA)
DNA 1: TTAAGGCCGGGGCCGCGCCGGGAATT
DNA 2: AATTCCCGGCGCGGCCCCGGCCTTAA
For B8, in data set [7], the binding result is listed as “binds”. The Kd with Smad3 MH1 domain [8] was roughly 100 nM.

B9: -GGCTGCC- (dsDNA)
DNA 1: GTAACCGGCTGCCGAATG
DNA 2: CATTCGGCAGCCGGTTAC
As to B9, the binding result with Smad3 MH1 domain [9] and with Smad4 MH1 domain [5] was “binds” throughout.

B10: GGCT 16mer (dsDNA)
DNA 1: TGCAGGCTAGCCTGCA
DNA 2: TGCAGGCTAGCCTGCA
On to B10, for which, in the data set with Smad4 MH1 domain [4] (self-complementary), the Kd stood at 250.5 ± 0.8 nM.

B11: -GGCCGG- (dsDNA)
DNA 1: ATTATTGGCCGGAAAGCA
DNA 2: TGCTTTCCGGCCAATAAT
For B11, the binding result in the data set with Smad4 MH1 domain [5] was “binds”.

B12: GC2_14 (CCTGGGC) (dsDNA)
DNA 1: AACCTGGGCAATTA
DNA 2: TAATTGCCCAGGTT
For B12, the binding result in the data set with Smad4 MH1 domain [3] is “no binding”.

B13: GGCGC-XRAY-Smad4 18mer (dsDNA)
DNA 1: ATGCGGGCGCGCCCGCAT
DNA 2: ATGCGGGCGCGCCCGCAT
Consider B13, for which, in the data set with Smad4 MH1 domain [10], the binding result is given as “binds”.
